From patent US20220242962A1 (APTEVO RESEARCH AND DEVELOPMENT, published 2022) come the findings set out here.

Assay [1] deals with T1, Full-length Human 4-1BB (human, UniProt Q07011 24-255). Kind of assay: cell-based or functional assay.
In assay [2] the target is T2, Full-length Human OX40 (human, UniProt P43489 29-277).
T2 sequence: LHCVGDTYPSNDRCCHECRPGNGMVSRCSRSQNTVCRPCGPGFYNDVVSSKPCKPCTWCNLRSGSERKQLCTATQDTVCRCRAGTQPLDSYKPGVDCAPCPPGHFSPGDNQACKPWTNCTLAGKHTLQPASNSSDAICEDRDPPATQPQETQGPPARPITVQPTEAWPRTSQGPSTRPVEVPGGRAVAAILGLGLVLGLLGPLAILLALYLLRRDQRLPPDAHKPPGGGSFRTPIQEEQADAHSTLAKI
Kind of assay: cell-based or functional assay.

The target of assay [3] is T1, Full-length Human 4-1BB. Kind of assay: flow cytometry, Jurkat cells expressing human 4-1BB. As for the experimental part: (§1) FIGS. 12A-12D show the binding of anti-4-1BB x anti-OX40 constructs, with additional humanization in 4-1BB and altered orientations of binding domains, human (12A) or cynomolgus (12C) 4-1BB-expressing Jurkat cells or human (12B) or cynomolgus (12D) OX40-expressing CHOK1SV cells. Serial dilutions of ADAPTIR™ constructs were incubated with transfected cells and subsequently labelled with a fluorescently-conjugated goat-a-human Fc secondary antibody. […] (See Example 19.)
(§2) Binding studies were performed using the flow cytometry-based staining procedures described above.
A general note: In flow cytometry, cells or beads pass a laser one at a time.

The next assay has as its target T3, Human 4-1BB ECD-AFH (human).
T3 construct: entry includes the tags; also called FOB003; HUMAN CD137 ECD-AVI-FLAG-HIS
Kind of assay: SPR, construct captured, monomeric ECD as analyte. On the procedure: (§3) Mouse anti-human IgG (GE, BR-1008-39) at 25 μg/ml in 10 mM sodium acetate pH 5.0 was immobilized at a density of ˜10,000 response units (RU) onto each flow cell of a CM5 research-grade sensor chip (GE) by standard amine coupling chemistry. Each binding protein at approximately 100 nM in HBS-EP+ with 0.2% BSA buffer was captured in a flow cell with the immobilized anti-human IgG at a flow rate of 10 μL/min for 20 seconds, leaving one flow cell surface unmodified as the reference. Using a single-cycle kinetics mode, five different concentrations of ECD were sequentially injected through each flow cell at 30 μL/min for 300 seconds followed by a 600 second dissociation period. Regeneration was achieved by injection of 3 M MgCl₂ at a flow rate of 30 μL/min for 30 seconds followed by HBS-EP+ with 0.2% BSA buffer stabilization for 1 min.
(§4) Sensorgrams obtained from kinetic SPR measurements were analyzed by the double subtraction method. The signal from the reference flow cell was subtracted from the analyte binding response obtained from flow cells with immobilized or captured ligands. Buffer reference responses were then averaged from multiple injections. The averaged buffer reference responses were then subtracted from analyte binding responses, and the final double-referenced data were analyzed with Biacore T200 Evaluation software (2.0, GE), globally fitting data to derive kinetic parameters. All sensorgrams were fitted using a simple one-to-one binding model.
(§5) Protein was produced by transient expression, purified by ProA chromatography and prep SEC.
In general terms: In SPR one partner is held on a chip, and binding of the other changes the refractive index at the surface.

In a further assay the target is T4, Human OX40 ECD-AFH (human).
T4 construct: ECD'; entry includes the C-terminal tags; also called OXF003; Human OX40 ECD-avi-flag-his
T4 chain: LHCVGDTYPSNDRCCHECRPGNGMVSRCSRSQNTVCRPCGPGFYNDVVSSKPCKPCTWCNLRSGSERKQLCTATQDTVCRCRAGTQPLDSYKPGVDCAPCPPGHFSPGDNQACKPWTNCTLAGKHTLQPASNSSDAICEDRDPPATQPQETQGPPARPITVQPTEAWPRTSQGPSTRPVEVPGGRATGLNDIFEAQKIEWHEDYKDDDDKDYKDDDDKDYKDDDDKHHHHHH
Kind of assay: SPR, construct captured, monomeric ECD as analyte. On the procedure:
as §3, §4, §5

A further assay has as its target T5, Full-length Cyno 4-1BB (cynomolgus monkey, UniProt Q07011 24-255 (human entry)).
T5 construct: on Jurkat or CHO cells; also called FOB006; cynomolgus 4-1BB
T5 chain: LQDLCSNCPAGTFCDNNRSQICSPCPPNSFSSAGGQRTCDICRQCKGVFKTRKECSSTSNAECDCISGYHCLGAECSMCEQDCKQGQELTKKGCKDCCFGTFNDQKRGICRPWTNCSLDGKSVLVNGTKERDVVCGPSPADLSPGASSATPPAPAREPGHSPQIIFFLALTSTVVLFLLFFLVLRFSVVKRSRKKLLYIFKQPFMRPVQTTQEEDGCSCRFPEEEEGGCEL
Kind of assay: flow cytometry on Jurkat cells transfected with cynomolgus 4-1BB, goat anti-human Fc secondary antibody, MFI (Mean). On the procedure: as §1, §2

The next assay has as its target T6, Full-length Cyno OX40 (cynomolgus monkey, UniProt P43489 29-277 (human entry)).
T6 construct: on CHO-K1SV cells; also called OXF004; cynomolgus OX40
T6 chain: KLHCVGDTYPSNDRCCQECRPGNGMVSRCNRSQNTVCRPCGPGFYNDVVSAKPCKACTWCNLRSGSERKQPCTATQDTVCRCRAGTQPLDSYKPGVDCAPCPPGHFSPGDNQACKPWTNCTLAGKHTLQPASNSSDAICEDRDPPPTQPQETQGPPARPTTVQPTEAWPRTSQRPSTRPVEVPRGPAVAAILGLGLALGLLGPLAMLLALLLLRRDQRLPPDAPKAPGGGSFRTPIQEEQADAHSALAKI
Kind of assay: flow cytometry on CHOK1SV cells transfected with cynomolgus OX40, goat anti-human Fc secondary antibody, MFI (Mean). On the procedure: as §1, §2

In assay [4] the target is T2, Full-length Human OX40. Kind of assay: flow cytometry, CHO cells expressing human OX40. As for the experimental part:
as §1, §2

What is called EC50 is the concentration needed to bring the measured effect to its halfway point. Broadly, the Kd is the concentration at which binding is half-saturated. High values mean weaker binding, low ones tighter binding. One may read the koff as the rate constant with which the complex falls apart. Read a high koff as fast dissociation. The kon is the second-order rate constant of association. A word on the EC50 (read off the curve): it is the concentration needed to bring the measured effect to its halfway point.

T3 sequence (chain, as listed by the source limits assumed): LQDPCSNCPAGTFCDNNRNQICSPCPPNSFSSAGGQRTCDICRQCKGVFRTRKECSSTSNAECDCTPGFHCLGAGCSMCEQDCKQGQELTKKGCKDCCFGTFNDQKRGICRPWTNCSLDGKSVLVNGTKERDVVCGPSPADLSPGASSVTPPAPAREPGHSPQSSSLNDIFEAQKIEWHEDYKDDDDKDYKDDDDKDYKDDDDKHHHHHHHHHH

B1: FXX01104 (bispecific antibody)
chain: EIVMTQSPATLSLSPGERATLSCRASQSVSSYLNWYQQKPGQAPRLLIYYASRRHTGIPARFSGSGSGTDFTLTISSLQPEDFAVYYCQQGYNLPYTFGQGTKVEIKGGGGSGGGGSGGGGSGGGGSEVQLVQSGAEVKKPGASVKVSCKASGYTFTSYWMNWVRQAPGQGLEWMGNIYPSGGSTNYAQKFQGRVTMTVDTSTSTVYMELSSLRSEDTAVYYCASFSDGYYAYAMDYWGQGTLVTVEPKSSDKTHTCPPCPAPPAAAPSVFLFPPKPKDTLMISRTPEVTCVVVDVSHEDPEVKFNWYVDGVEVHNAKTKPREEQYNSTYRVVSVLTVLHQDWLNGKEYKCAVSNKALPAPIEKTISKAKGQPREPQVYTLPPSRDELTKNQVSLTCLVKGFYPSDIAVEWESNGQPENNYKTTPPVLDSDGSFFLYSKLTVDKSRWQQGNVFSCSVMHEALHNHYTQKSLSLSPGGGGSPSSYVLTQPPSVSVAPGQTARITCGGNNIGSKSVNWFQQKPGQAPVLVVYDDSGRPSGIPERFSGSTSGNTATLTISRVEAGDEADYYCQVWDSSSDHVVFGGGTKLTVLGGGGSGGGGSGGGGSGGGGSQVQLVESGGGVVQPGRSLRLSCAASGFTLSYYGMHWVRQAPGKGLEWVAAISHDGSDKYYADSVKGRFTISRDNSKNTLYLQMNSLRAEDTAVYYCSNDQFDPWGQGTLVTVSSR
notes: ADAPTIR anti-4-1BB (LH) x anti-OX40; also called FX01104
For B1, in the assay with Full-length Human 4-1BB [1], the “4-1BB Reporter Assay EC50” value worked out at 0.011 nM and the “4-1BB Reporter Assay Max induction” value was found to be 6.11e+06. Also, in the assay with Full-length Human OX40 [2], the “OX40 Reporter Assay EC50” value was found to be 0.013 nM and the “OX40 Reporter Assay Max induction” value was found to be 1.99e+06. In the assay with Full-length Human 4-1BB [3], the EC50 was found to be 0.31 nM and the “max MFI” value stood at 4860 MFI. In the assay with Human 4-1BB ECD-AFH, this molecule displayed a Kd of 17 nM, a koff of 0.0055 s⁻¹ and an association rate constant (kon) of 320000 M⁻¹ s⁻¹. Also, in the assay with Human OX40 ECD-AFH, binding was characterised by a dissociation constant (Kd) of 0.5 nM, the koff came out at 0.00032 s⁻¹ and the kon came to 710000 M⁻¹ s⁻¹. Moreover, the “EC50 (read off the curve)” value in the assay with Full-length Cyno 4-1BB was about 0.3 nM. Moreover, the half-maximal effective concentration (EC50 (read off the curve)) with Full-length Cyno OX40 is about 0.8 nM. In the assay with Full-length Human OX40 [4], the midpoint of the response, the EC50, lay at 0.32 nM and the “max MFI” value was 10400 MFI.

B2: FXX01107 (bispecific antibody)
chain: EIVMTQSPATLSLSPGERATLSCRASQSVSSYLNWYQQKPGQAPRLLIYYASRRHTGIPARFSGSGSGTDFTLTISSLQPEDFAVYYCQQGYNLPYTFGQGTKVEIKGGGGSGGGGSGGGGSGGGGSEVQLVQSGAEVKKPGASVKVSCKASGYTFTSYWMNWVRQAPGQGLEWMGNIYPSGGSTNYAQKFQGRVTMTVDTSTSTVYMELSSLRSEDTAVYYCASFSDGYYAYAMDYWGQGTLVTVEPKSSDKTHTCPPCPAPPAAAPSVFLFPPKPKDTLMISRTPEVTCVVVDVSHEDPEVKFNWYVDGVEVHNAKTKPREEQYNSTYRVVSVLTVLHQDWLNGKEYKCAVSNKALPAPIEKTISKAKGQPREPQVYTLPPSRDELTKNQVSLTCLVKGFYPSDIAVEWESNGQPENNYKTTPPVLDSDGSFFLYSKLTVDKSRWQQGNVFSCSVMHEALHNHYTQKSLSLSPGGGGSPSSYVLTQPPSVSVAPGQTARITCGGNNIGSKSVNWFQQKPGQAPVLVVYDDSGRPSGIPERFSGSTSGNTATLTISRVEAGDEADYYCQVWDSSSDHVVFGGGTKLTVLGGGGSGGGGSGGGGSGGGGSQVQLVESGGGVVQPGRSLRLSCAASGFTLSYYGMHWVRQAPGKGLEWVAAISHDGSDKYYADSVKGRFTISRDNSKNRLYLQMNSLRAEDTAVYYCSNDQFDPWGQGTLVTVSSR
notes: ADAPTIR anti-4-1BB (LH) x anti-OX40 with T86R; also called FX01107
On to B2, for which, in the assay with Full-length Human 4-1BB [1], the “4-1BB Reporter Assay EC50” value is 0.016 nM and the “4-1BB Reporter Assay Max induction” value was 6.85e+06. Besides, in the assay with Full-length Human OX40 [2], the “OX40 Reporter Assay EC50” value worked out at 0.013 nM and the “OX40 Reporter Assay Max induction” value amounted to 2.14e+06. Further, in the assay with Full-length Human 4-1BB [3], the midpoint of the response, the EC50, lay at 0.26 nM and the “max MFI” value is 4700 MFI. In the assay with Human 4-1BB ECD-AFH, this molecule returned a Kd of 18 nM, a koff of 0.0056 s⁻¹ and an on-rate (kon) of 310000 M⁻¹ s⁻¹. In the assay with Human OX40 ECD-AFH, the Kd came out at 0.5 nM, the koff came out at 0.00029 s⁻¹ and the kon is 630000 M⁻¹ s⁻¹. In addition, the “EC50 (read off the curve)” value in the assay with Full-length Cyno 4-1BB was about 0.3 nM. Moreover, the half-maximal effective concentration (EC50 (read off the curve)) with Full-length Cyno OX40 was about 0.8 nM. Moreover, in the assay with Full-length Human OX40 [4], the EC50 stood at 0.29 nM and the “max MFI” value was 10300 MFI.

B3: FXX01105 (bispecific antibody)
chain: EIVMTQSPATLSLSPGERATLSCRASQSVSSYLNWYQQKPGQAPRLLIYYASRRHTGIPARFSGSGSGTDFTLTISSLQPEDFAVYYCQQGYNLPYTFGQGTKVEIKGGGGSGGGGSGGGGSGGGGSEVQLVQSGAEVKKPGASVKVSCKASGYTFTSYWMNWVRQAPGQGLEWMGNIYPSGGSTNYAQKFQGRVTMTVDTSTSTVYMELSSLRSEDTAVYYCASFSDGYYAYAMDYWGQGTLVTVEPKSSDKTHTCPPCPAPPAAAPSVFLFPPKPKDTLMISRTPEVTCVVVDVSHEDPEVKFNWYVDGVEVHNAKTKPREEQYNSTYRVVSVLTVLHQDWLNGKEYKCAVSNKALPAPIEKTISKAKGQPREPQVYTLPPSRDELTKNQVSLTCLVKGFYPSDIAVEWESNGQPENNYKTTPPVLDSDGSFFLYSKLTVDKSRWQQGNVFSCSVMHEALHNHYTQKSLSLSPGGGGSPSSYVLTQPPSVSVAPGKTARITCGGNNIGSKSVNWFQQKPGQAPVLVVYDDSGRPSGIPERFSGSTSGNTATLTISRVEAGDEADYYCQVWDSSSDHVVFGGGTKLTVLGGGGSGGGGSGGGGSGGGGSQVQLVESGGGVVQPGRSLRLSCAASGFTLSYYGMHWVRQAPGKGLEWVAAISHDGSDKYYADSVKGRFTISRDNSKNTLYLQMNSLRAEDTAVYYCSNDQFDPWGQGTLVTVSSR
notes: ADAPTIR anti-4-1BB (LH) x anti-OX40 with Q17K; also called FX01105
On to B3, for which, in the assay with Full-length Human 4-1BB [1], the “4-1BB Reporter Assay EC50” value was determined as 0.014 nM and the “4-1BB Reporter Assay Max induction” value is 6.58e+06. Further, in the assay with Full-length Human OX40 [2], the “OX40 Reporter Assay EC50” value came to 0.01 nM and the “OX40 Reporter Assay Max induction” value stood at 1.97e+06. Also, in the assay with Full-length Human 4-1BB [3], the EC50 came to 0.33 nM and the “max MFI” value was 4940 MFI. In the assay with Human 4-1BB ECD-AFH, this molecule gave a Kd of 19 nM, a koff of 0.0055 s⁻¹ and a kon of 290000 M⁻¹ s⁻¹. Further, in the assay with Human OX40 ECD-AFH, the equilibrium dissociation constant (Kd) turned out to be 0.4 nM, the koff worked out at 0.00027 s⁻¹ and the kon amounted to 710000 M⁻¹ s⁻¹. Also, the concentration for a half-maximal effect (EC50 (read off the curve)) in the assay with Full-length Cyno 4-1BB was about 0.3 nM. The “EC50 (read off the curve)” value in the assay with Full-length Cyno OX40 was about 0.8 nM. Moreover, in the assay with Full-length Human OX40 [4], the EC50 is 0.35 nM and the “max MFI” value came to 10500 MFI.
